Assay: soluble on expression in E. coli; label from the status in PepcDB or PDB records

Sequence | soluble on expression in E. coli
MGSDKIHHHHHHMNSPYTRSPRTIKHAFVTGATGLLGNNLVRALLKQGIKVTALVRSMEKARLQFGDLPIQYVKGDILNPEAFRSAFTDCDTLFHTAAFFRDSHKGGKHWQELYDTNVTGTTHLLKAAYEEGIRQMIHTSSIAVLKGERHQLIDETMSRDPSTKLDYYRSKILSENAVSNFLKEYPDLFLCYVLPGSMYGPGDMGPTATGQLILDYMQQKLPGIITKASYSVVDTRDVADIHILALKYGRRNERYLAAGRHMTMESIVKTLEEITGIPAPKRHIPIFLVQALAQWNELYHKITGKPVLVSKEIADITAEEYLRTYFSHKKTEQELGGQFRPFEETLLDTVRWYRNHGYLN | not soluble
MSLLRQRFVFDTTALTDSQAWESEGCTTLCEGMSAILHRVAQARLHLGISCYVPYPSVYNEIRDFVRNNNCDIAILGKIDTWLVKKTPDRYRVKIPSKIFYEYVDYMRSRINKGMNVSEEAIWEAVSRCLSISATGEGREQMREEIEREVVGSIIRKFREKYRAALRYGILDSAPDIDVLLLAKDLDAAVVSQDLGIQRWAEQLGLRFMEARAFPQMVREYMSFVPLHTEELEDRMVEGHHHHHH | soluble
KTKALIIEDKTLTDDQRKEQLLGVDTEYAKGIENIDAAKDAAGVDKAYSDGVRDILAQYKEGQNLNDRRNAAKEFL | not soluble
MGSDKIHHHHHHAAAPAFSALGDTASSQARHIATVFPGRMTGTPPEMLSADYLRQQFALMGYQSDVRSFNTRYIYTDSNQRKNWHNATGSTVIAAHEGKVRQQIIIMAHLDTYAPQSDKDVENNLGGLTLQGIDDNAMGLGVLLELAEHLKNVPTRYGIRFIATSGEEEGRLGAQNLLQRMSEAEKKNTLLVINLDNLVVGDKLYFNSGRSTPASVRKLTRDRALAIARSKGIAAYTNPGLNPAYPKGTSCCNDASVFDNAGIPVLSVEATNWSLGKKDGYQQRSKSASFPQGTSWHDVQLDNQQYIDHALPGRIEHRGREVVKVMLPLVKELAKVEKKS | not soluble
MGSDKIHHHHHHMQRYDAVISGAGPAGCSAALSLAQKGRRVLLIDKARFPREKICGDGVTAASTELLEEMGVLELLRQRPGSLTEFRGATFVSPGGTVVQGRILRNGHLSGSSYVIPRMVLDDSLVSRVKEHSSITFLDKTTVTGLVMDGDRARGVATSAGEFCGRIIIAADGAYSPIAKQLDLWNRDKRQQGFAMRAWFSGVEGLGDSIELCYDKAMLPGYGWIFPAGEQRANVGVFLLPRFADQRSTKRLFKSFVKENAFAAARLKNAVMEPGSLKSWPLPFGSFAGRRGRGNVLLAGDAGSFIDPLTGEGIYYALKTGRYAAEAVANALERNDESAALTRYEQLWRGEFSGRVYFPGYAFQHFMNNSWFVDTFMRYTAKKQHRADLLADVVAHNRKRRELFKLLNPFY | not soluble
MTKGKGRNPGASGLDKHLKRKTHLERSQPKSRQHLGQLEKHKDHVLRAKKRKVKVRRLQEIKRAAAQRNPDEFNIGMTKAVMDVANGRMRQRRVRLVESDRKKDMQTTIEHNRRNVQYLEFKAQADQQRATELLNEEAAAALTSTAPQNKHIVFVNSEEEFRSFNPLKHFDVTPEMMRQHPAVRGRIRVLEKTVMPEEILMSGGHQIKSAAQKRKERREVQEKMRRSGADATPETRAAFVERLRAKKELKQYQFTDLLEEVKRESEATASSSKGAPGDDGEQEEAAAQDEVTRLLEWRREQERQAAIATARHVREVGQRIQRSKSLSALAKSIRKQSQGIKRQMEQRRESRFKPGATRRAR | not soluble
MSLKHVVVIGAVALGPKAACRFKRLDPEAHVTMIDQASRISYGGCGIPYYVSGEVSNIESLQATPYNVVRDPEFFRINKDVEALVETRAHAIDRAAHTVEIENLRTGERRTLKYDKLVLALGSKANRPPVEGMDLAGVTPVTNLDEAEFVQHAISAGEVSKAVIVGGGFIGLEMAVSLADMWGIDTTVVELADQIMPGFTSKSLSQMLRHDLEKNDVVVHTGEKVVRLEGENGKVARVITDKRTLDADLVILAAGVSPNTQLARDAGLELDPRGAIIVDTRMRTSDPDIFAGGDCVTIPNLVTGKPGFFPLGSMANRQGRVIGTNLADGDATFPGAVGSWAVKLFEGSASGAGLTVEGALREGYDAVNVHVEQFDRAHFYPEKTIMTLQLVVDRPTRRVLGIQGFSTLGDALTARINAVATMLASKPTVEDISNAEVVYSPPFASAMDIVNVAGNVADNVLAGRCRLVGTEEFVQLWEGRKDADICFVDTRLAANAVPLVEKYGDEWINIPEEELAARIDEIPRDKTVMLVCNTGLRSFESQLILDRLGLTNTKSVAGGMVAIHKIGGDEGHHHHHH | soluble
MSLQTAAAPTPAPVAAAPALPQGQVNIAVGSLKCKAEKCYGGLGEGIGDALTTALLNTGKFAVYERENTAQLTEEAFLNGGATFQGADVLIFGAITQYEPQASSGGLSFMGVSVGKKSSTIAMDLRIVDAKTRRIIGATQVQGKAEGNNFNVSGLLPVNVGAQSSPQLEAAISQMLNNAAQQLLLKVPASYYKEEGHHHHHH | soluble
MAGDPMNEEQRKASSVDVLAERDKKAEKDYSKYFEHVYQPPNLKEAKKRGKQEVRYNRDFQIDEKYRGMGNERTFLIKTYGCQMNAHDTEVIAGILEALGYQATTDINTADVILINTCAIRENAENKVFSEIGNLKHLKKERPDILIGVCGCMSQEESVVNKILKSYQNVDMIFGTHNIHHLPEILEEAYLSKAMVVEVWSKEGDVIENLPKVREGNIKAWVNIMYGCDKFCTYCIVPFTRGKERSRRPEDIIDEVRELAREGYKEITLLGQNVNSYGKDLQDIEYDLGDLLQAISKIAIPRVRFTTSHPWDFTDHMIDVISEGGNIVPHIHLPVQSGNNAVLKIMGRKYTRESYLDLVKRIKDRIPNVALTTDIIVGYPNESEEQFEETLTLYDEVGFEHAYTYLYSQRDGTPAAKMKDNVPLNVKKERLQRLNKKVGHYSQIAMSKYEGQTVTVLCEGSSKKDDQVLAGYTDKNKLVNFKAPKEMIGKLVEVRIDEAKQYSLNGSFVKEVEPEMVIQLEHHHHHH | soluble
MAEGERLYLCGEFTKAIQSFTNALHLQSGDKNCLVARSKCYLKMGDLEKSLNDAEASLRNDPTFCKGILQKAETLYTMGDFEFALVFYHRGYKLRPDREFKVGIQKAQEAINNSVGSPSSIKLENKGDLSFLSKQAESKKAQQKHLPIKQLSYSTKHEIKRKGSLKSEKTVRQLLGELYVDKEYLEKLLLDEDLIKGTIKSGLTVEDLIMTGINYLDTRSNFWRQQKPIYARERDRKLMQEKWLRDRKRSPSQTAHYILKSLEDIDMLLTSGSADGSLQKAEKVLKKVLEWNQEEVPNKDELVGNLYSCIGNAQIELGQMVAALQSHRKDLEIAKEHDLPDAKSRALDNIGRVFARVGKFQQAIDVGGEDPSSQNHPGEDLALPRDWPLLLGAGPGVAGPELWGKVSAVR | soluble
MATPYVPVPMPIGNSASSFTNNRNQRSSSFGSVSTSSTSSKGQLEDSAVGSLKQTNVQDQMDSASSMCGSPLIRTKFTGTDSSIEYSARPREAEEQHPEAVNWEDRPSTPTILGYEVMEERAKFTVYKILVKKSPEESWVVFRRYTDFSRLNDKLKEMFPGFRLALPPKRWFKDNYNAEFLEDRQLGLQAFLQNLVAHKDIANCLAVREFLCLDDPPGPFDSLEESRAFCETLEETNYHLQRELLEKQKEVESLKKLLGEKQLHIDALETRIRTLSLEPGASLYVSRAEGGQILRVEPSVLQVNRDVLDEESRADHKPHFNSREAGSVIAGIEVAQLAYNAEDD | soluble
AESESFVLDFSQPSADYLDFRNRLQADHVCLENCVLKDKAIAGTVKVQNLAFEKTVKIRMTFDTWKSYTDFPCQYVKDTYAGSDRDTFSFDISLPEKIQSYERMEFAVYYECNGQTYWDSNRGKNYRIIRAELKSTQGMTKPHSGPDLG | soluble
MSPMRIGLVCIRGSVPAFENFGFLPTDIVGSNGLVNGSRAHRVLDGIIIPGGSIVESGSLSPELAFEIRRMASDGKFVLGICSGFQALAERTDIGRKSPCPVYREGLGLLNVTFHPMISNDRVEATITGESFLTSGMSGERITGFHCHTYGEIRGDAPEIMKSRIVRADYHERPGEILSGVCSDDGNVAGTMVHGCLDENQTLVSNILKFLDADETARERILEANRKLREALRSELGISTGIRVMDRGGTRGTPPAIMIASTGSDSGKTFILTGLAGALRRRGLRVGVIKVGPDVRDIVPALYLIKEPMEEHSSIRIGRLGWMELRDVLESVRGRYDIILIEGVMSILTGLLNDITPYSGAEIALAAGIPLIMVAGCSKGGIESAVVDLDAHISVLEGLGLEVSCGILNRVYDMDIFERASGGRYLAIPRVEMSERGGTPEVEIKLEDFCLKAMETVEEHLDVDTLISFAKKPEFRGYMGPEEIKKVFSPLEHHHHHH | not soluble
MGSDKIHHHHHHMELRVGGAKPSDNSPAASKGFSDPLDSHGVPGRSKQYLIHSAFTGTIGGVAMAYVDWAIKGPKIASCSCDYGCPCEFNGKPTEGLCEGLECMLIEEGWFGDLRLDGLKVAAVYRWPGPVHEGGGVVRGFFDANADQAQIDALFTILGGKEQEPTTVFNIYGSTIAQELEPIFAPIEFHSDIEKRTGGFRIDGHLELELEPIRNPVTGAPHRARIVLPEGFEFRQAEIASGTFNANGEIAMGRQKRYGALWRAAYGPYGIIEE | not soluble
MSLYTFKELKRATKQDTVSLPKLKVALLGDTATQLLATAIKGEGILRNYNIELWEAEYNQVERQIMDPTSDYYQFEPDYTIIFHSTHKLLEKHSLVNSDLQNKLADDRLDFVRLLCEQGIGRVIYYNYPEIEDTIWGSYATKVQSSFTYQLTKLNYELMNISQAYPNFFICNLAGISAKYGRNFMFDSSVYVNTEIILSLDALPIISSRTIDIIAAIQGKFKKCLILDLDNTIWGGVVGDDGWENIQVGHGLGIGKAFTEFQEWVKKLKNRGIIIAVCSKNNEGKAKEPFERNPEMVLKLDDIAVFVANWENKADNIRTIQRTLNIGFDSMVFLDDNPFERNMVREHVPGVTVPELPEDPGDYLEYLYTLNLFETASFSEDDKDRTKQYQIEAKRVSLQQSFTNEAEFLKSLDMVSEVKGFDKFNTPRVAQLSQRSNQFNLRTVRYTEAEIAAIESDLHYATFSFTLADRFGDNGLICVIILEKQDTETLFINTWFMSCRVLKRGMENFTLNTLVDYARSNGFKRFIGEYLPSAKNQMVEEHYPHLGFSKMEGGDNAARYVLDVEEGHHHHHH | not soluble
MLKHDLDYLELLSESFPTATEAATEIINLEAILNLPKGTEHFLADIHGEYEAFIHVLKNASGSIRRKVDEVFGGQLRQNQKRELCTLIYYPREKLELVKQSDERMEDWYMVTLNQLIKVCQKAAEKYTRSKVRKTLPPKYSYIIQELLHEDGVNPNKSAYISSIFSSIISTGCADDFIIAISETIQRLVIDHLHVVGDVFDRGPGAHIIMDTLMKYHHFDIQWGNHDMLWMGAAVGNASCMANVVRIALRYANLDTLESGYGINLLPLARFAMDTYADDPCTVFKPKLAQADQTYDDKSVYLISQMHKAISIIQFKLEHQIIARHPEYKMDNRDLFHLVNFTDGTIKLSSGVYPMLDMNFPTVDPADPYALTEQEQNIVDRLMGCFMRSEKLQNHLKCLYRHGSMYLTYNMNLLYHASIPLNKDKSLKKVRVGDKTYAGRELLDKVEEMIRTAYVAPEKSDQRLAAVDYMWYLWCGPDSPLFDKAMMTTFERYFIEDKATHHEEKGYYYVYRQEKAVCEMILKEFGLEGPDTHIINGHVPVKAKKGELPIGAEGKLMLIDGGFSKAYQSSTGIAGYTLIFNSQGLHLVQHEPFSSTRKAIEEMEDIKSITVVREVTSHRMLVKDTDNGHLLSKQVENLKKLLQAYSYGLIKERKK | not soluble

Reference: the DeepSol protein solubility set
